In test [1] the target is CLSP(1-61)-MycHis (N-terminal region of CLSP, amino acid 1-61, C-terminally tagged with MycHis) (human) (UniProt Q9NZT1). As to the kind of experiment: cell-based or functional assay.
Test [2] concerns the target CLSPCOL (hybrid polypeptide of CLSP(1-61), MycHisG and the collagen-homologous region of adiponectin) (human). The test can be described thus: cell-based or functional assay.
Test [3] concerns the target human CLSP-MycHis (calmodulin-like skin protein, C-terminally tagged with MycHis) (human) (UniProt Q9NZT1). As to the kind of experiment: cell-based or functional assay.
Test [4] deals with T1, apolipoprotein E4 C-terminally tagged with FLAG (overexpressed in F11 cells, immunoprecipitated with FLAG … (human, UniProt P02649 19-317)).
T1 construct: also called ApoE4-FLAG; ApoE4; not shown: C-terminal FLAG tag
T1 sequence (P02649 19-317 C130R limits assumed): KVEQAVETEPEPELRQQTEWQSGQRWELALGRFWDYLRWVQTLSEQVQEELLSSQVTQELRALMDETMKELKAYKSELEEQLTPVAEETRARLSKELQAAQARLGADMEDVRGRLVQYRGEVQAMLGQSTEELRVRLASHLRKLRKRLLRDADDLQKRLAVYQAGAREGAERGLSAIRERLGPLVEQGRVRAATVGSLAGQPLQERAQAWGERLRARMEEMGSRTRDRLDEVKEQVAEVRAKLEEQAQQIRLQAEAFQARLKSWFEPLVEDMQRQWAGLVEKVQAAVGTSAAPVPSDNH
As to the kind of experiment: pull-down of purified MycHis-tagged CLSP proteins with ApoE4-FLAG immunoprecipitated on M2 agarose beads, WB anti-myc [ApoE4 beads].

Test [5] has as its target T2, recombinant human ApoE4 (PeproTech, cat. no. 350-04) (human, UniProt P02649 19-317).
T2 construct: also called apolipoprotein E4
The test can be described thus: plate coated with ApoE4, rising CLSP-HiBiT, chemiluminescence (Nano-Glo HiBiT), Scatchard analysis; ApoE4 on the plate. The method, then: (§1) The dissociation constants (Kd) for the binding between CLSP and adiponectin, and between CLSP and ApoE4 were then measured (FIGS. 8b and c). For this purpose, adiponectin or ApoE4 protein was conjugated to the 96-well plates. Various concentrations of recombinant CLSP C-terminally tagged with HiBiT, a chemiluminescence producing tag, were added to the plates for simultaneous incubation. After washing, the amount of CLSP-HiBiT binding to adiponectin or ApoE4 on the wells was measured. The dissociation constant between adiponectin and CLSP or between ApoE4 and CLSP was measured to be 8.8 or 7.8 pM respectively by Scatchard analysis (FIG. 8c).
(§2) The dissociation constant for the binding between ApoE4 (or adiponectin) and CLSP was measured using Nano-Glo HiBiT Extracellular Detection System (Promega, cat. no.: N2420) in accordance with the instruction. For the coating of recombinant ApoE4 or adiponectin, 100 μl of 50 mM carbonate buffer (pH 9.6) containing 20 pM ApoE4 or adiponectin was incubated overnight at 4° C. in the wells of 96-well plates (Fluorescence-use Black-type Plate H, cat. no.: MS-8596KZ, Sumitomo Bakelite Co., Ltd., Tokyo, Japan). The protein-coated plates were washed three times with 200 μl of PBS. Then, 150 μl of PBS containing 1% skim milk (GIBCO) was added to each well. […] Resulting chemiluminescence was measured for each well using Wallac ARVO™ X5 (Perkin Elmer). […]
A general note: The HiBiT peptide binds its large partner to form an active luciferase.

In test [6] the target is T2, recombinant human ApoE4 (PeproTech, …). As to the kind of experiment: Scatchard analysis; wells coated with 20 pM recombinant ApoE4, stepwise CLSP-HiBiT, HiBiT chemiluminescence [plot ApoE4]. The method, then:
(§3) Dissociation constants were calculated by the Scatchard analysis using Prism7 software.
as §1
as §2, with “Japan).” for “Japan). The protein-coated plates were washed three times with 200 μl of PBS. Then, 150 μl of PBS containing 1% skim milk (GIBCO) was added to each well.”

Test [7] deals with T3, human adiponectin (BioVendor, cat. no. RD172029100) (human, UniProt Q15848 19-244, limits assumed).
T3 construct: Bought; also called ADN; wild-type adiponectin
T3 sequence: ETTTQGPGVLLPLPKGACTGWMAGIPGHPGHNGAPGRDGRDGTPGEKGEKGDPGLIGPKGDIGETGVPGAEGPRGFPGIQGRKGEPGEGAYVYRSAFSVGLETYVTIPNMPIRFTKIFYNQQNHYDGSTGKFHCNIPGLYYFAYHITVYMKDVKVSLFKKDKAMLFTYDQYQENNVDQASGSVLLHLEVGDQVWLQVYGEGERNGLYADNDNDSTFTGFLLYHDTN
The test can be described thus: Scatchard analysis; wells coated with 20 pM adiponectin, stepwise CLSP-HiBiT, HiBiT chemiluminescence [plot ADN]. The method, then:
as §3, §1
as §2, with “Japan).” for “Japan). The protein-coated plates were washed three times with 200 μl of PBS. Then, 150 μl of PBS containing 1% skim milk (GIBCO) was added to each well.”

Test [8] concerns the target T3, human adiponectin (BioVendor, cat. no. …). As to the kind of experiment: plate coated with adiponectin, rising CLSP-HiBiT, chemiluminescence (Nano-Glo HiBiT), Scatchard analysis; adiponectin on the plate. The procedure:
as §1, §2

For test [9], the target named is T1, apolipoprotein E4 C-terminally tagged …. The test can be described thus: pull-down with immunoprecipitated ApoE4-FLAG, immunoblot (FIG. 15 a, b). The method, then: (a, b) <Apolipoprotein E4 binds to the C-terminal region of CLSP> A schematic illustration of deletion mutants of CLSP is shown in (a). Apolipoprotein E4 (ApoE4) and adiponectin (ADN), C-terminally tagged with FLAG, were overexpressed in F11 neurohybrid cells by transfection. At 24 hours after the transfection, the cell lysates of F11 cells were prepared. For immunoprecipitation of ApoE4-FLAG and ADN-FLAG using the FLAG antibody, 300 μg of cell lysates was used. Recombinant CLSP-MycHis (FL-MH) or C-terminally MycHis-tagged CLSP deletion mutants produced in bacteria were purified. These immunoprecipitates and recombinant proteins were then subjected to SDS-PAGE and immunoblot analysis using the myc and FLAG antibodies (inputs). The ApoE4-FLAG and ADN-FLAG immunoprecipitates were mixed with recombinant CLSP-MycHis (FL-MH) or C-terminally MycHis-tagged CLSP deletion mutants and incubated at 4° C. overnight, followed by exhaustive washing. The pulled-down precipitates were then subjected to SDS-PAGE and immunoblotted using the myc and FLAG antibodies. (c) <CLSP binds to the collagen-homologous region of adiponectin> The collagen-homologous region of adiponectin (ADNCol), N-terminally tagged with 6×His and G(HisG), was produced in bacteria. In addition, CLSP-FLAG was overexpressed in F11 neurohybrid cells by transfection. […]
On the technique in general: A western blot detects proteins with antibodies after separation by electrophoresis.

T2 sequence (P02649 19-317 C130R limits assumed): as the sequence (P02649 19-317 C130R limits assumed) above

In the case of calreticulin, in [1], the inhibition of the cell death-suppressing activity of CLSP1-61 (cell death assay, FIG. 19) was 10 fold amount. Further, the inhibition of the cell death-suppressing activity of 100 pM CLSPCOL; concentration at which inhibition began in test [2] worked out at 1 nM. In test [3], this molecule registered an inhibition of the CLSP-mediated protection of V642I-APP-induced neuronal death; concentration for complete inhibition of 10 nM CLSP of 50 nM.

For “recombinant GST-human 14-3-3σ (from UniProt P31947 1-248)”, the inhibition of the cell death-suppressing activity of CLSP1-61 (cell death assay, FIG. 19) in test [1] came to 10 fold amount. In test [3], this molecule displayed an inhibition of the CLSP-mediated protection of V642I-APP-induced neuronal death; concentration at which inhibition of 10 nM CLSP began of 10 nM and an inhibition of the CLSP-mediated protection of V642I-APP-induced neuronal death; concentration for complete inhibition of 10 nM CLSP of 20 nM.

B1: CLSP deletion mutant EHR, C-terminally tagged with MycHis (consists of only the endogenous humanin-homogenous region) (peptide)
chain: TGKNLSEAQLRKLISEVDSDGD
notes: also called mutants consisting of only EHR; not shown: C-terminal MycHis tag
Turning to B1, the binding result in test [4] is recorded as “no binding”.

B2: CLSP-HiBiT (recombinant CLSP C-terminally tagged with HiBiT) (ligand)
chain: MAGELTPEEEAQYKKAFSAVDTDGNGTINAQELGAALKATGKNLSEAQLRKLISEVDSDGDGEISFQEFLTAAKKARAGLEDLQVAFRAFDQDGDGHITVDELRRAMAGLGQPLPQEELDAMIREADVDQDGRVNYEEFARMLAQEVSGWRLFKKIS
notes: HiBiT oligonucleotides were put into pGEX-2T-CLSP at the SmaI-EcoRI site; Made 'in the same way' as CLSP-MycHis (GST fusion, thrombin release); also called GST-CLSP-HiBiT (precursor)
The Kd is the concentration at which binding is half-saturated. As for B2, the Kd in test [5] came out at 7.8 pM; in test [6] it was 8.8 pM; in test [7], 7.8 pM; in [8], 8.8 pM.

B3: CLSP(1-61)-MycHis (N-terminal region of CLSP, amino acid 1-61, C-terminally tagged with MycHis) (ligand)
chain: MAGELTPEEEAQYKKAFSAVDTDGNGTINAQELGAALKATGKNLSEAQLRKLISEVDSDGD
notes: Made in bacteria; not shown: C-terminal MycHis tag
In the case of B3, the binding result in test [9] is listed as “no binding”.

Values taken from patent publication US20220275038A1 (TOKYO MEDICAL UNIVERSITY, published 2022).
